# Laboratory results from paper PMC2174052 (The Journal of Cell Biology, 2002).
# T1: Ypt32p (Saccharomyces cerevisiae, UniProt P51996)
# T1 sequence (P51996 2-222): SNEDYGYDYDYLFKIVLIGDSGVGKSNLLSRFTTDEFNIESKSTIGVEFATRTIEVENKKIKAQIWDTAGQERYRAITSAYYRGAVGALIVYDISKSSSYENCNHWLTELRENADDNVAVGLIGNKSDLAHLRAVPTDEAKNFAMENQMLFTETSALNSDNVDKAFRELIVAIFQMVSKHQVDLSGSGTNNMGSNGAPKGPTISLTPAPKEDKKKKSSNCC
# T2: GST–Sec2p (full-length) (S. cerevisiae, UniProt P17065 1-759)
# T2 sequence: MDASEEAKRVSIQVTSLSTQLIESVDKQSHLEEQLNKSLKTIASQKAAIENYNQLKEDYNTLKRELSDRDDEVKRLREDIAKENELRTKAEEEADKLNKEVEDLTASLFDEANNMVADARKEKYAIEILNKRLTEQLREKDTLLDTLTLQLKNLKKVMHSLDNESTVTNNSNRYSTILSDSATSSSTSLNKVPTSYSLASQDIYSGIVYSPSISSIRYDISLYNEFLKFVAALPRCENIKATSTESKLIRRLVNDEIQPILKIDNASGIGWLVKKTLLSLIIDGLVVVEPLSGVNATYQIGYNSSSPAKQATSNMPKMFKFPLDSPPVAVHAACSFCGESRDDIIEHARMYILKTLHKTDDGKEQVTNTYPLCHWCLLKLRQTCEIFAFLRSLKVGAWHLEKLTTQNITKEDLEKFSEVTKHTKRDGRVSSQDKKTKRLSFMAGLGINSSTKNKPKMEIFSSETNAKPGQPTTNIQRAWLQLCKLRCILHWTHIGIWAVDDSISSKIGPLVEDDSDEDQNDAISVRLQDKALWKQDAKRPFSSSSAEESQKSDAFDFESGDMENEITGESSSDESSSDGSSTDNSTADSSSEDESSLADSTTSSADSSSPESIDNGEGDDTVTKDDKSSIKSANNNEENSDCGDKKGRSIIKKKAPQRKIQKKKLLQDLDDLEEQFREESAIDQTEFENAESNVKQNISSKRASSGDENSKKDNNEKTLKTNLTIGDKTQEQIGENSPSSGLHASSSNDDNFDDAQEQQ
# T3: GST–Sec2-59(aa 1–374)p (S. cerevisiae, UniProt P17065 1-374)
# T3 sequence: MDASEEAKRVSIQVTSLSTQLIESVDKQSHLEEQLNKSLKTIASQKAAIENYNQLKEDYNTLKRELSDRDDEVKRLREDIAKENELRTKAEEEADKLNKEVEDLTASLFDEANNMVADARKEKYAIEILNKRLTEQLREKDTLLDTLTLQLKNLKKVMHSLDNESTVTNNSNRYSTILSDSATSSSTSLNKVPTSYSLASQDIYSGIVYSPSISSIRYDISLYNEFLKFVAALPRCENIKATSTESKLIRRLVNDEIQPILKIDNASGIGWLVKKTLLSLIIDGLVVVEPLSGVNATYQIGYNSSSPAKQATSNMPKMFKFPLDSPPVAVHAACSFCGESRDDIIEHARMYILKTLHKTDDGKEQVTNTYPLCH
# T4: GST–Sec2-70 (aa 1–508) (S. cerevisiae, UniProt P17065 1-508)
# T4 sequence: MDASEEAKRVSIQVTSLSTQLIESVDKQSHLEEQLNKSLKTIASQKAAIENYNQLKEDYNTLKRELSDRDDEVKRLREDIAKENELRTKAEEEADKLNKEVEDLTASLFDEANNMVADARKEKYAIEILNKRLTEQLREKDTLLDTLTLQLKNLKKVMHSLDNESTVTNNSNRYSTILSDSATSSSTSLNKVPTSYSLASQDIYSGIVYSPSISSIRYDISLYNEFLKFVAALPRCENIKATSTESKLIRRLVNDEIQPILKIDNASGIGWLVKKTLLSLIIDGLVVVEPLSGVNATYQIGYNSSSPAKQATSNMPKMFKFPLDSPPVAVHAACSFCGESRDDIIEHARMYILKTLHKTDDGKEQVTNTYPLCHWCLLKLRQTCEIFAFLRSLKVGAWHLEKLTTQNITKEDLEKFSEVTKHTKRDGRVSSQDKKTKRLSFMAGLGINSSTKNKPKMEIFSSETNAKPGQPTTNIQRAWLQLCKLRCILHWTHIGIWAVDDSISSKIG
# T5: GST–Sec2(aa 161–759) (S. cerevisiae, UniProt P17065 161-759)
# T5 sequence: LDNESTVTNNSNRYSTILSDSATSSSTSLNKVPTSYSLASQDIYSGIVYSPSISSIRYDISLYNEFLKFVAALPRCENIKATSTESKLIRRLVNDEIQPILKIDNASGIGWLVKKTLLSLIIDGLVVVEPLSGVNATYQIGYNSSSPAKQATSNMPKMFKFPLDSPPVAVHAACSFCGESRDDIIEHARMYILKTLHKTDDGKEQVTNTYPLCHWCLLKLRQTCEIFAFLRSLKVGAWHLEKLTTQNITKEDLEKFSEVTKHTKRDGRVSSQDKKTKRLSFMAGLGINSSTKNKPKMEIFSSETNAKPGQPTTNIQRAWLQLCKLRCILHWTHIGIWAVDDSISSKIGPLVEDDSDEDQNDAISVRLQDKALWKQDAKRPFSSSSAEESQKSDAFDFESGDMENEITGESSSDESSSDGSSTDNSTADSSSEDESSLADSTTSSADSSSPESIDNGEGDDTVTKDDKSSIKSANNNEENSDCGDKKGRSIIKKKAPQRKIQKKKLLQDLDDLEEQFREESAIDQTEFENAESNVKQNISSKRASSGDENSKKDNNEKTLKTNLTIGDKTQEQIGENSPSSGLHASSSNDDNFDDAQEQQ
# B1: GST–Sec2(aa 1–160)p (domain or fragment)
# chain: MDASEEAKRVSIQVTSLSTQLIESVDKQSHLEEQLNKSLKTIASQKAAIENYNQLKEDYNTLKRELSDRDDEVKRLREDIAKENELRTKAEEEADKLNKEVEDLTASLFDEANNMVADARKEKYAIEILNKRLTEQLREKDTLLDTLTLQLKNLKKVMHS
# B2: His6–Sec4p (natural protein)
# chain: MSGLRTVSASSGNGKSYDSIMKILLIGDSGVGKSCLLVRFVEDKFNPSFITTIGIDFKIKTVDINGKKVKLQLWDTAGQERFRTITTAYYRGAMGIILVYDVTDERTFTNIKQWFKTVNEHANDEAQLLLVGNKSDMETRVVTADQGEALAKELGIPFIESSAKNDDNVNEIFFTLAKLIQEKIDSNKLVGVGNGKEGNISINSGSGNSSKSNCC
# B3: His6–Ypt32p (natural protein)
# chain: MSNEDYGYDYDYLFKIVLIGDSGVGKSNLLSRFTTDEFNIESKSTIGVEFATRTIEVENKKIKAQIWDTAGQERYRAITSAYYRGAVGALIVYDISKSSSYENCNHWLTELRENADDNVAVGLIGNKSDLAHLRAVPTDEAKNFAMENQMLFTETSALNSDNVDKAFRELIVAIFQMVSKHQVDLSGSGTNNMGSNGAPKGPTISLTPAPKEDKKKKSSNCC
# What was measured:
# Ypt32p = target: T1, Ypt32p; experiment: GTP hydrolysis; assay type: biochemical; details: with stoichiometric Sec2p (GAP activity)
# His6–Sec4p = target: B2; experiment: pull-down
# GST–Sec2p (full-length) = target: T2, GST–Sec2p (full-length); experiment: pull-down
# GST–Sec2-59(aa 1–374)p = target: T3, GST–Sec2-59(aa 1–374)p; experiment: pull-down
# GST–Sec2-70 (aa 1–508) = target: T4, GST–Sec2-70 (aa 1–508); experiment: pull-down
# GST–Sec2(aa 161–759) = target: T5, GST–Sec2(aa 161–759); experiment: pull-down
molecule,measurement,setting,value
Nc1nc2c(ncn2[C@@H]2O[C@H](COP(=O)(O)OP(=O)(O)OP(=O)(O)O)[C@@H](O)[C@H]2O)c(=O)[nH]1 [GTP],GTP hydrolysis,Ypt32p,we observed a fivefold increase in GTP hydrolysis by Ypt32p (unpublished data)
B1,binding result,His6–Sec4p,binds
B2,amount bound relative to Ypt32p (fold),GST–Sec2p (full-length),4 fold
B3,binding result,GST–Sec2p (full-length),binds
same,binding result,GST–Sec2-59(aa 1–374)p,binds
same,binding result,GST–Sec2-70 (aa 1–508),binds
same,binding result,GST–Sec2(aa 161–759),binds
